Assay results as given in patent publication US12630600B2 (MEDIMMUNE LIMITED, priority 2022, dated 2026).
Starred links: 1 amine or outer side, 2 acyl side, 3 side chain; linkers in the order of their positions; H or OH if unused. Non-standard residues stand in square brackets, D forms with d. Groups on a side chain read outwards from the residue. No end group written: not given here. *: point of attachment. C20 diacid = O=C(O)CCCCCCCCCCCCCCCCCCC(=O)*; C18 diacid = O=C(O)CCCCCCCCCCCCCCCCC(=O)*; γGlu = O=C(O)[C@H](CCC(=O)[*:2])N[*:1]; αMeF = C[C@](N)(Cc1ccccc1)C(=O)O; AEEA = NCCOCCOCC(=O)O; Aib = CC(C)(N)C(=O)O

Columns and labels:
Assay in all cases: cell-based or functional assay
[1] = target: human glucagon receptor (human, UniProt P47871)
[2] = target: human GLP-1 receptor (human, UniProt P43220)
[3] = target: human glucagon receptor (human, UniProt P47871); remark: listed apart in the source
[4] = target: human GLP-1 receptor (human, UniProt P43220); remark: listed apart in the source

B1: Peptide 205 (peptide)
peptide: H[Aib]QGT[αMeF]TSDVSK[αMeF]LDSRAAK([AEEA-AEEA-γGlu-C18 diacid])DFVQWIANT-NH2
modifications: N-terminus assumed
SMILES: CC[C@H](C)[C@H](NC(=O)[C@H](Cc1c[nH]c2ccccc12)NC(=O)[C@H](CCC(N)=O)NC(=O)[C@@H](NC(=O)[C@H](Cc1ccccc1)NC(=O)[C@H](CC(=O)O)NC(=O)[C@H](CCCCNC(=O)COCCOCCNC(=O)COCCOCCNC(=O)CC[C@H](NC(=O)CCCCCCCCCCCCCCCCC(=O)O)C(=O)O)NC(=O)[C@H](C)NC(=O)[C@H](C)NC(=O)[C@H](CCCNC(=N)N)NC(=O)[C@H](CO)NC(=O)[C@H](CC(=O)O)NC(=O)[C@H](CC(C)C)NC(=O)[C@](C)(Cc1ccccc1)NC(=O)[C@H](CCCCN)NC(=O)[C@H](CO)NC(=O)[C@@H](NC(=O)[C@H](CC(=O)O)NC(=O)[C@H](CO)NC(=O)[C@@H](NC(=O)[C@](C)(Cc1ccccc1)NC(=O)[C@@H](NC(=O)CNC(=O)[C@H](CCC(N)=O)NC(=O)C(C)(C)NC(=O)[C@@H](N)Cc1c[nH]cn1)[C@@H](C)O)[C@@H](C)O)C(C)C)C(C)C)C(=O)N[C@@H](C)C(=O)N[C@@H](CC(N)=O)C(=O)N[C@H](C(N)=O)[C@@H](C)O
hGluc-R EC50 (pM) [1]: 8.14 pM
hGLP-1R EC50 (pM) [2]: 29.9 pM

B2: Peptide 210 (peptide)
peptide: H[Aib]HGS[αMeF]TSDVSK[αMeF]LDSQAAK([AEEA-AEEA-γGlu-γGlu-C18 diacid])DFVEWIANT-NH2
modifications: N-terminus assumed
SMILES: CC[C@H](C)[C@H](NC(=O)[C@H](Cc1c[nH]c2ccccc12)NC(=O)[C@H](CCC(=O)O)NC(=O)[C@@H](NC(=O)[C@H](Cc1ccccc1)NC(=O)[C@H](CC(=O)O)NC(=O)[C@H](CCCCNC(=O)COCCOCCNC(=O)COCCOCCNC(=O)CC[C@H](NC(=O)CC[C@H](NC(=O)CCCCCCCCCCCCCCCCC(=O)O)C(=O)O)C(=O)O)NC(=O)[C@H](C)NC(=O)[C@H](C)NC(=O)[C@H](CCC(N)=O)NC(=O)[C@H](CO)NC(=O)[C@H](CC(=O)O)NC(=O)[C@H](CC(C)C)NC(=O)[C@](C)(Cc1ccccc1)NC(=O)[C@H](CCCCN)NC(=O)[C@H](CO)NC(=O)[C@@H](NC(=O)[C@H](CC(=O)O)NC(=O)[C@H](CO)NC(=O)[C@@H](NC(=O)[C@](C)(Cc1ccccc1)NC(=O)[C@H](CO)NC(=O)CNC(=O)[C@H](Cc1c[nH]cn1)NC(=O)C(C)(C)NC(=O)[C@@H](N)Cc1c[nH]cn1)[C@@H](C)O)C(C)C)C(C)C)C(=O)N[C@@H](C)C(=O)N[C@@H](CC(N)=O)C(=O)N[C@H](C(N)=O)[C@@H](C)O
hGluc-R EC50 (pM) [1]: 93.7 pM
hGLP-1R EC50 (pM) [2]: 156 pM

B3: Peptide 213 (peptide)
peptide: H[Aib]HGS[αMeF]TSDVSK[αMeF]LDSRAAK([AEEA-AEEA-γGlu-γGlu-C20 diacid])DFVEWIANT-NH2
modifications: N-terminus assumed
SMILES: CC[C@H](C)[C@H](NC(=O)[C@H](Cc1c[nH]c2ccccc12)NC(=O)[C@H](CCC(=O)O)NC(=O)[C@@H](NC(=O)[C@H](Cc1ccccc1)NC(=O)[C@H](CC(=O)O)NC(=O)[C@H](CCCCNC(=O)COCCOCCNC(=O)COCCOCCNC(=O)CC[C@H](NC(=O)CC[C@H](NC(=O)CCCCCCCCCCCCCCCCCCC(=O)O)C(=O)O)C(=O)O)NC(=O)[C@H](C)NC(=O)[C@H](C)NC(=O)[C@H](CCCNC(=N)N)NC(=O)[C@H](CO)NC(=O)[C@H](CC(=O)O)NC(=O)[C@H](CC(C)C)NC(=O)[C@](C)(Cc1ccccc1)NC(=O)[C@H](CCCCN)NC(=O)[C@H](CO)NC(=O)[C@@H](NC(=O)[C@H](CC(=O)O)NC(=O)[C@H](CO)NC(=O)[C@@H](NC(=O)[C@](C)(Cc1ccccc1)NC(=O)[C@H](CO)NC(=O)CNC(=O)[C@H](Cc1c[nH]cn1)NC(=O)C(C)(C)NC(=O)[C@@H](N)Cc1c[nH]cn1)[C@@H](C)O)C(C)C)C(C)C)C(=O)N[C@@H](C)C(=O)N[C@@H](CC(N)=O)C(=O)N[C@H](C(N)=O)[C@@H](C)O
hGluc-R EC50 (pM) [1]: 141 pM
hGLP-1R EC50 (pM) [2]: 534 pM

B4: Peptide 233 (peptide)
peptide: H[Aib]HGS[αMeF]TSDVSK[αMeF]LDSRAAK([AEEA-AEEA-γGlu-γGlu-C20 diacid])D[αMeF]VQ[Aib]IANTGG-NH2
modifications: N-terminus assumed
SMILES: CC[C@H](C)[C@H](NC(=O)C(C)(C)NC(=O)[C@H](CCC(N)=O)NC(=O)[C@@H](NC(=O)[C@](C)(Cc1ccccc1)NC(=O)[C@H](CC(=O)O)NC(=O)[C@H](CCCCNC(=O)COCCOCCNC(=O)COCCOCCNC(=O)CC[C@H](NC(=O)CC[C@H](NC(=O)CCCCCCCCCCCCCCCCCCC(=O)O)C(=O)O)C(=O)O)NC(=O)[C@H](C)NC(=O)[C@H](C)NC(=O)[C@H](CCCNC(=N)N)NC(=O)[C@H](CO)NC(=O)[C@H](CC(=O)O)NC(=O)[C@H](CC(C)C)NC(=O)[C@](C)(Cc1ccccc1)NC(=O)[C@H](CCCCN)NC(=O)[C@H](CO)NC(=O)[C@@H](NC(=O)[C@H](CC(=O)O)NC(=O)[C@H](CO)NC(=O)[C@@H](NC(=O)[C@](C)(Cc1ccccc1)NC(=O)[C@H](CO)NC(=O)CNC(=O)[C@H](Cc1c[nH]cn1)NC(=O)C(C)(C)NC(=O)[C@@H](N)Cc1c[nH]cn1)[C@@H](C)O)C(C)C)C(C)C)C(=O)N[C@@H](C)C(=O)N[C@@H](CC(N)=O)C(=O)N[C@H](C(=O)NCC(=O)NCC(N)=O)[C@@H](C)O
hGluc-R EC50 (pM) [1]: 407 pM

B5: Peptide 250 (peptide)
peptide: H[Aib]HGS[αMeF]TSDVSK[αMeF]LDSR[Aib]AK([AEEA-AEEA-γGlu-γGlu-C18 diacid])D[αMeF]VESIANT-NH2
hGLP-1R EC50 (pM) [2]: 601 pM

B6: Peptide 147 (peptide)
peptide: H[Aib]QGTFTSDVSK[αMeF]LDSK([AEEA-AEEA-γGlu-C18 diacid])RAQDFVRWLEA[Aib]G-OH
modifications: N-terminus assumed
SMILES: CC(C)C[C@H](NC(=O)[C@H](Cc1c[nH]c2ccccc12)NC(=O)[C@H](CCCNC(=N)N)NC(=O)[C@@H](NC(=O)[C@H](Cc1ccccc1)NC(=O)[C@H](CC(=O)O)NC(=O)[C@H](CCC(N)=O)NC(=O)[C@H](C)NC(=O)[C@H](CCCNC(=N)N)NC(=O)[C@H](CCCCNC(=O)COCCOCCNC(=O)COCCOCCNC(=O)CC[C@H](NC(=O)CCCCCCCCCCCCCCCCC(=O)O)C(=O)O)NC(=O)[C@H](CO)NC(=O)[C@H](CC(=O)O)NC(=O)[C@H](CC(C)C)NC(=O)[C@](C)(Cc1ccccc1)NC(=O)[C@H](CCCCN)NC(=O)[C@H](CO)NC(=O)[C@@H](NC(=O)[C@H](CC(=O)O)NC(=O)[C@H](CO)NC(=O)[C@@H](NC(=O)[C@H](Cc1ccccc1)NC(=O)[C@@H](NC(=O)CNC(=O)[C@H](CCC(N)=O)NC(=O)C(C)(C)NC(=O)[C@@H](N)Cc1c[nH]cn1)[C@@H](C)O)[C@@H](C)O)C(C)C)C(C)C)C(=O)N[C@@H](CCC(=O)O)C(=O)N[C@@H](C)C(=O)NC(C)(C)C(=O)NCC(=O)O
cAMP production, hGluc-R EC50 (pM) [3]: 43.5 pM
cAMP production, hGLP-1R EC50 (pM) [4]: 15.3 pM

B7: Peptide 148 (peptide)
peptide: H[Aib]QGTFTSDVSK[αMeF]LDSK([AEEA-AEEA-γGlu-C18 diacid])RAQDFVRWIAE[Aib]G-OH
modifications: N-terminus assumed
SMILES: CC[C@H](C)[C@H](NC(=O)[C@H](Cc1c[nH]c2ccccc12)NC(=O)[C@H](CCCNC(=N)N)NC(=O)[C@@H](NC(=O)[C@H](Cc1ccccc1)NC(=O)[C@H](CC(=O)O)NC(=O)[C@H](CCC(N)=O)NC(=O)[C@H](C)NC(=O)[C@H](CCCNC(=N)N)NC(=O)[C@H](CCCCNC(=O)COCCOCCNC(=O)COCCOCCNC(=O)CC[C@H](NC(=O)CCCCCCCCCCCCCCCCC(=O)O)C(=O)O)NC(=O)[C@H](CO)NC(=O)[C@H](CC(=O)O)NC(=O)[C@H](CC(C)C)NC(=O)[C@](C)(Cc1ccccc1)NC(=O)[C@H](CCCCN)NC(=O)[C@H](CO)NC(=O)[C@@H](NC(=O)[C@H](CC(=O)O)NC(=O)[C@H](CO)NC(=O)[C@@H](NC(=O)[C@H](Cc1ccccc1)NC(=O)[C@@H](NC(=O)CNC(=O)[C@H](CCC(N)=O)NC(=O)C(C)(C)NC(=O)[C@@H](N)Cc1c[nH]cn1)[C@@H](C)O)[C@@H](C)O)C(C)C)C(C)C)C(=O)N[C@@H](C)C(=O)N[C@@H](CCC(=O)O)C(=O)NC(C)(C)C(=O)NCC(=O)O
cAMP production, hGluc-R EC50 (pM) [3]: 568 pM
cAMP production, hGLP-1R EC50 (pM) [4]: 40.2 pM

B8: Peptide 149 (peptide)
peptide: H[Aib]QGTFTSDVSK[αMeF]LDSK([AEEA-AEEA-γGlu-C18 diacid])RAQDFVRWVVE[Aib]G-OH
modifications: N-terminus assumed
SMILES: CC(C)C[C@H](NC(=O)[C@](C)(Cc1ccccc1)NC(=O)[C@H](CCCCN)NC(=O)[C@H](CO)NC(=O)[C@@H](NC(=O)[C@H](CC(=O)O)NC(=O)[C@H](CO)NC(=O)[C@@H](NC(=O)[C@H](Cc1ccccc1)NC(=O)[C@@H](NC(=O)CNC(=O)[C@H](CCC(N)=O)NC(=O)C(C)(C)NC(=O)[C@@H](N)Cc1c[nH]cn1)[C@@H](C)O)[C@@H](C)O)C(C)C)C(=O)N[C@@H](CC(=O)O)C(=O)N[C@@H](CO)C(=O)N[C@@H](CCCCNC(=O)COCCOCCNC(=O)COCCOCCNC(=O)CC[C@H](NC(=O)CCCCCCCCCCCCCCCCC(=O)O)C(=O)O)C(=O)N[C@@H](CCCNC(=N)N)C(=O)N[C@@H](C)C(=O)N[C@@H](CCC(N)=O)C(=O)N[C@@H](CC(=O)O)C(=O)N[C@@H](Cc1ccccc1)C(=O)N[C@H](C(=O)N[C@@H](CCCNC(=N)N)C(=O)N[C@@H](Cc1c[nH]c2ccccc12)C(=O)N[C@H](C(=O)N[C@H](C(=O)N[C@@H](CCC(=O)O)C(=O)NC(C)(C)C(=O)NCC(=O)O)C(C)C)C(C)C)C(C)C
cAMP production, hGluc-R EC50 (pM) [3]: 2650 pM
cAMP production, hGLP-1R EC50 (pM) [4]: 8.71 pM
